Reference: publication PMC4175358, “Conformational Analysis of the Streptococcus pneumoniae Hyaluronate Lyase and Characterization of Its Hyaluronan-specific Carbohydrate-binding Module*^([image sbox.jpg])” (The Journal of Biological Chemistry, 2014)

Columns and labels:
SpCBM70 = target: T1, SpCBM70 (Streptococcus pneumoniae, UniProt Q54873); experiment: isothermal titration calorimetry; assay type: binding; settings: 25 °C, 25 mM Tris-HCl pH 7.5, 50 mM NaCl; too weak to quantify
T1 construct: gene SP_0314; N-terminal CBM70 module, Lys53-Ser212, N-terminal His6 tag with thrombin site (pET28), recombinant in E. coli; ITC construct; 4D0Q is the C-terminally His6-tagged Asn54-Ser212 form, unliganded
Text: isothermal titration calorimetry on SpCBM70

[1] = target: the molecule itself; experiment: small angle X-ray scattering; 50 mM Tris-HCl pH 8.0, 500 mM NaCl, 288 K, Hyl 1.0-10.8 mg/ml; monomer/dimer mixture modelled with SASREF7MX (P2 symmetry, 30 runs each at 1.0-2.7 mg/ml) and OLIGOMER; Kd = [monomer]^2/[dimer], dimer to monomers
[2] = target: the molecule itself; experiment: dynamic light scattering; 25 °C, triplicate, 15 acquisitions of 5 s, after size exclusion chromatography and 0.22 µm filter; Hyl 1.0-10.8 mg/ml, PL8 1.4-10.9 mg/ml; associated fraction from expected radii of a globular monomer and dimer; Kd = [monomer]^2/[dimer], dimer to monomers

Molecule: Hyaluronan 4-mer
- Ka (SpCBM70): > 5 × 10^3

B1: Streptococcus pneumoniae hyaluronate lyase, construct with the CBM, middle (linker) and PL8 domains (residues Lys53-Lys1006) (enzyme)
chain: KNLVENGDFGQTEDGSSPWTGSKAQGWSAWVDQKNSADASTRVIEAKDGAITISSHEKLRAALHRMVPIEAKKKYKLRFKIKTDNKIGIAKVRIIEESGKDKRLWNSATTSGTKDWQTIEADYSPTLDVDKIKLELFYETGTGTVSFKDIELVEVADQLSEDSQTDKQLEEKIDLPIGKKHVFSLADYTYKVENPDVASVKNGILEPLKEGTTNVIVSKDGKEVKKIPLKILASVKDAYTDRLDDWNGIIAGNQYYDSKNEQMAKLNQELEGKVADSLSSISSQADRTYLWEKFSNYKTSANLTATYRKLEEMAKQVTNPSSRYYQDETVVRTVRDSMEWMHKHVYNSEKSIVGNWWDYEIGTPRAINNTLSLMKEYFSDEEIKKYTDVIEKFVPDPEHFRKTTDNPFKALGGNLVDMGRVKVIAGLLRKDDQEISSTIRSIEQVFKLVDQGEGFYQDGSYIDHTNVAYTGAYGNVLIDGLSQLLPVIQKTKNPIDKDKMQTMYHWIDKSFAPLLVNGELMDMSRGRSISRANSEGHVAAVEVLRGIHRIADMSEGETKQCLQSLVKTIVQSDSYYDVFKNLKTYKDISLMQSLLSDAGVASVPRPSYLSAFNKMDKTAMYNAEKGFGFGLSLFSSRTLNYEHMNKENKRGWYTSDGMFYLYNGDLSHYSDGYWPTVNPYKMPGTTETDAKRADSDTGKVLPSAFVGTSKLDDANATATMDFTNWNQTLTAHKSWFMLKDKIAFLGSNIQNTSTDTAATTIDQRKLESGNPYKVYVNDKEASLTEQEKDYPETQSVFLESFDSKKNIGYFFFKKSSISMSKALQKGAWKDINEGQSDKEVENEFLTISQAHKQNRDSYGYMLIPNVDRATFNQMIKELESSLIENNETLQSVYDAKQGVWGIVKYDDSVSTISNQFQVLKRGVYTIRKEGDEYKIAYYNPETQESAPDQEVFKK
notes: Hyaluronate lyase (Hyl) of Streptococcus pneumoniae, a 1066-amino acid protein; residues Lys53-Lys1006, amplified from genomic DNA; lacks the N-terminal secretion signal peptide and the C-terminal cell-wall anchoring motif; the results section prints 53-1007; The His6 tag is joined by a thrombin cleavage site; Theoretical mass printed as 110.6 kDa; In solution a monomer/dimer mixture; also called …
- Kd [1]: ~43 µM
- stoichiometry N [1]: 2
- Kd [2]: ~37 µM

B2: PL8 catalytic domain of Streptococcus pneumoniae hyaluronate lyase (residues Lys288-Gln1009) (domain or fragment)
chain: KDAYTDRLDDWNGIIAGNQYYDSKNEQMAKLNQELEGKVADSLSSISSQADRTYLWEKFSNYKTSANLTATYRKLEEMAKQVTNPSSRYYQDETVVRTVRDSMEWMHKHVYNSEKSIVGNWWDYEIGTPRAINNTLSLMKEYFSDEEIKKYTDVIEKFVPDPEHFRKTTDNPFKALGGNLVDMGRVKVIAGLLRKDDQEISSTIRSIEQVFKLVDQGEGFYQDGSYIDHTNVAYTGAYGNVLIDGLSQLLPVIQKTKNPIDKDKMQTMYHWIDKSFAPLLVNGELMDMSRGRSISRANSEGHVAAVEVLRGIHRIADMSEGETKQCLQSLVKTIVQSDSYYDVFKNLKTYKDISLMQSLLSDAGVASVPRPSYLSAFNKMDKTAMYNAEKGFGFGLSLFSSRTLNYEHMNKENKRGWYTSDGMFYLYNGDLSHYSDGYWPTVNPYKMPGTTETDAKRADSDTGKVLPSAFVGTSKLDDANATATMDFTNWNQTLTAHKSWFMLKDKIAFLGSNIQNTSTDTAATTIDQRKLESGNPYKVYVNDKEASLTEQEKDYPETQSVFLESFDSKKNIGYFFFKKSSISMSKALQKGAWKDINEGQSDKEVENEFLTISQAHKQNRDSYGYMLIPNVDRATFNQMIKELESSLIENNETLQSVYDAKQGVWGIVKYDDSVSTISNQFQVLKRGVYTIRKEGDEYKIAYYNPETQESAPDQEVFKKLEQ
notes: Hyaluronate lyase (Hyl) of Streptococcus pneumoniae, PL8 catalytic domain, residues Lys288-Gln1009; The His6 tag is joined by a thrombin cleavage site; Expected mass printed as 82 kDa; also called PL8 domain; isolated PL8 domain; source: recombinant, pET28, autoinduction culture
- Kd [2]: ~180 µM
- stoichiometry N [2]: 2
